Data on three molecules can be found in patent US20130108642A1 (LOS ANGELES BIOMEDICAL RESEARCH INSTITUTE AT HARBOR UCLA …, published 2013).

For experiment [1], the target named is T1, endothelial cell surface GRP78 (human umbilical vein endothelial cells) (human, UniProt P11021 19-654).
T1 construct: whole, on cells; In the adherence and endocytosis assays it is on intact endothelial cells; also called endothelial cell GRP78; Glucose Regulated Protein 78
Put plainly: pull-down of biotin-labeled endothelial cell surface proteins by yeast cells, immunoblot with anti-GRP78 Ab. (Immunoblotting shows a protein as a band on a membrane.)

A further experiment concerns the target T2, recombinant human Grp78 (human, UniProt P11021 19-654).
T2 construct: Soluble probe in the FAR Western blot, detected with anti-Grp78 Ab; also called rGrp78; Grp78p
Kind of experiment: FAR Western blot with recombinant human Grp78 and anti-Grp78 Ab; bands identified by MALDI-TOF-MS/MS.

T2 sequence (P11021 19-654 limits assumed): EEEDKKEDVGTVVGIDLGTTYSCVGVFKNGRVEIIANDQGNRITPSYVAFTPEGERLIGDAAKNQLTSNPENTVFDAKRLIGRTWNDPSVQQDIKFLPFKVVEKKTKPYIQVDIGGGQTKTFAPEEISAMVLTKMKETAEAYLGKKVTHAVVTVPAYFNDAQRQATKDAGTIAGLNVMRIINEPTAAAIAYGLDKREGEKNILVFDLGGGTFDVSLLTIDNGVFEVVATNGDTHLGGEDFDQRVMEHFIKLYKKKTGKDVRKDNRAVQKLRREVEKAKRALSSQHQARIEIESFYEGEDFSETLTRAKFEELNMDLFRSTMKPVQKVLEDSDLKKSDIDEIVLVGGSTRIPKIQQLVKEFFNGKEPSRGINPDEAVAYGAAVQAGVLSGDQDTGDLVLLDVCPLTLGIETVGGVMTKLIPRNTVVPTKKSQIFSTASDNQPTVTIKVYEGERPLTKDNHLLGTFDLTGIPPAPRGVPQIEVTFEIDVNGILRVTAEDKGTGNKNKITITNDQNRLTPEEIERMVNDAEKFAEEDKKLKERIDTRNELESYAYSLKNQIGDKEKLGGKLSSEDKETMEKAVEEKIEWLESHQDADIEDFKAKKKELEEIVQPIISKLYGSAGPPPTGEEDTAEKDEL
T1 sequence (P11021 19-654): as the sequence (P11021 19-654 limits assumed) above

B1: CotH1 (RO3G-05018) from R. oryzae, on the cell surface of S. cerevisiae (other)
chain: AKVSFKVIAPDAKNRVHVNINGVLVELKASDPDVPYYTGFAELKHGQSYNYVVDGNAEPFKRLLNGSSTKNEFFNRPVTYATNIPELPSILTEGSWTRGDTSNPIWDSNYVPSIFVTGNPREMNELIENVKKNTYKTKITFIGPETINTFEGCTLGLHKPGRKHNDAKQSWIWALPEGQFMANRNWFKIRHMEEDPTQLREKLYADILRKMGTYANEANMVRFFINKEGMGIFNMLDDVIMYSYINAMFYHGDTPEQLGGLYDGASGASFNFPGDFDSFIPNVESPLDQDAIEPFSKAFTSIDFLEDEQVKTIGKYFDYDQFLRFMVMEFLTGDWDGYWQEQTNDGAYIDINDHNKIYYLGQDFDATFGVNLEQKREFVNVSYTEYPKLFPGGVLINRLLQNPGVKKTFENYLKITVQEIFNNATLGPYVTARHEFLAPDLQWDRSIKQRSPGNIFGWTFEQTYENLFEGVTAPGKNSGGADWGLLEWVAAKEKAVKSYLSSSEAADAATVTQVPEAPGTDGTPSESTAWPHANTRFRQAEASNTHKIGTSSPSNFIVKIKQGTVSS
notes: also called S. cerevisiae expressing CotH1
Take B1: the binding result in experiment [1] was “no binding”.

B2: CotH2 (RO3G-08029), native protein in cell wall material from supernatants of R. oryzae germling protoplasts (other)
chain: ASVQFNLIAPSATDVKVSVNGQQVALTASDPNVPYFTGSAEVGGTEESFERSLAGITNSTFNDFYNRPVTYANLPQLPWPIENDPQWTRKGKKAEIFDDNYIPSVFFHGDDSQVQDLVKNVPKDKVTGTLTFIGSNYVHSFANVSFGIHGAGKKHNNAKQSWKWTLSGTDTMGNRNHFKLRHMEEDPTQIRERLYADILHAMGTYANETTMVRLFINGQGFGTFNMLDDITEFSYINAMFYGGNPPATLGPLFDGASGADFIYHPGNLDGYSSWKPNKDNANGEGYEAFDPLCKAWNETDYTDNTAIANFEKMFDTEHFLRFMVIEYLTAHWDGYWMGQTNDGAYRDPSDNNKWYFLDQDFDATFGVNLDVPENKDFISVSYKDFPSRYPAGVMANGLLQNADKKAKFEQYLTETVRVLFNNVTLTNRVLAIHNFLSPDLEWDRSIVQQSPGTNFGWTFEQTSQNLWQGVSAPNNNGGGAEWGLVEYIAAKSQAMAKEFNITIVSEPVGPPAANGTATSTNDGGNTHTAAGESKPASSSESSGSKIASQSVS
notes: Protein on the FAR Western blot, identified by MALDI-TOF-MS/MS of excised bands; also called R. oryzae ligand; R. oryzae surface protein
For the molecule B2, the binding result in the experiment with recombinant human Grp78 is recorded as “binds”.

B3: CotH3 (RO3G-11882), native protein in cell wall material from supernatants of R. oryzae germling protoplasts (other)
chain: ASIKFNVIAPNATDVKVSVNGQQVTLTASDANVPYFTGSAEVGASKTYKYVAGGTEESFDRSLDGITNSTLNDFYNRPVTYANLPQLPWPIEKDPQWTRSGSKADIFDDNYIPSVFFHGDDSQVQNVVKNVPADRISGTLTFIGSNYVYSFQNVSFGIHGAGKKHNNAKQSWNWILSGSDTMGNRNFFKLRHMEEDPTQIRERLYSDILHAMGTYANDATMVRLFINNQGFGTFNMLDDITQFSYINAKFYNGKPPATLGPLYDGASGADFLYHPGNLDGYSSWVANTANPNGEAYEALDPLCKAWNETTYTDNTAIANFEKMFDLDRFMRFMVIEYLTADWDGYWMGQTNDGAYRDPTDNNKWYFLDQDFDGTFGVNLAAPEGNAFLDVSYKDFPSRYPGAVMINNLLQNADKKATFEKYLTETVRVLFNNVTLTNRVLALHNFLLPDLEWDRSIVQQSPGINFGWTFDQVTQNLWQGVTAPNNNGGGAAFGLVEYIAAKAQAVAKEFNISIVSQPVGPPSANGTTAAAPAPAAGNSTGKGGNQSISSSASSNKTSAQSTS
notes: as for B2
Consider B3, for which, in the experiment with recombinant human Grp78, the binding result was “binds”.
